Data on 8 molecules can be found in patent publication US20170112792A1 (BETH ISRAEL DEACONESS MEDICAL CENTER, published 2017).

What is called Kd is the constant that tells how readily two partners part at equilibrium.

B3: Erk1 (enzyme, human, UniProt P27361 1-379, looked up)
chain: MAAAAAQGGGGGEPRRTEGVGPGVPGEVEMVKGQPFDVGPRYTQLQYIGEGAYGMVSSAYDHVRKTRVAIKKISPFEHQTYCQRTLREIQILLRFRHENVIGIRDILRASTLEAMRDVYIVQDLMETDLYKLLKSQQLSNDHICYFLYQILRGLKYIHSANVLHRDLKPSNLLINTTCDLKICDFGLARIADPEHDHTGFLTEYVATRWYRAPEIMLNSKGYTKSIDIWSVGCILAEMLSNRPIFPGKHYLDQLNHILGILGSPSQEDLNCIINMKARNYLQSLPSKTKVAWAKLFPKSDSKALDLLDRMLTFNPNKRITVEEALAHPYLEQYYDPTDEPVAEEPFTFAMELDDLPKERLKELIFQETARFQPGVLEAP
notes: entries are written once for Erk1 and once for Erk2; also called Erk1/2 (member Erk1); total Erk1/2

The target in experiment [1] is T1, Erk2 (human, UniProt P28482 1-360).
T1 construct: entries are written once for Erk1 and once for Erk2; also called Erk1/2 (member Erk2); total Erk1/2
Nature of the experiment: reciprocal co-IP of endogenous proteins from HMLE lysate, western blot; the Erk1/2 strip does not separate Erk1 from Erk2. (In western blotting, separated proteins are transferred to a membrane and probed.)

For experiment [2], the target named is B3. The description is as above.
Experiment [3] concerns the target T2, IRAKM S110E peptide (IRAKM residues 103-124 with the S110E substitution).
T2 construct: Synthetic peptide; also called IRAKM Ser110E
T2 peptide: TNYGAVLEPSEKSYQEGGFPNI
Nature of the experiment: NMR titration, 1H-15N HSQC chemical shift changes.

The next experiment deals with T3, myc-MKP3 (UniProt Q16828 1-381).
T3 construct: also called MAP kinase phosphatase 3; not shown: myc tag
T3 sequence (looked up): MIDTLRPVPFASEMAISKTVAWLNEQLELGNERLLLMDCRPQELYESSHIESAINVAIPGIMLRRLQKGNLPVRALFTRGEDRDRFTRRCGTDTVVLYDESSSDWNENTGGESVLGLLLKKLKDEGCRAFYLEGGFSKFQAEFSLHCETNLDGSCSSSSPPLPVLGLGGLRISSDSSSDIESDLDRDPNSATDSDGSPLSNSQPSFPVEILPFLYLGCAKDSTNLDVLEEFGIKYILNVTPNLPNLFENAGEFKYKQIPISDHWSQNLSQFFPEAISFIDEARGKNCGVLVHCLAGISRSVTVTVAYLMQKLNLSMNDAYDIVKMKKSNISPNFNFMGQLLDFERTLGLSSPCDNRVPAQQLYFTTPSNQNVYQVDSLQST
Nature of the experiment: competition co-IP: Flag IP of 293T lysates with a constant dose of Flag-Rab2A (competitor) and falling doses of myc-MKP3, western blot for Erk1/2.

Experiment [4] concerns the target T4, IRAKM, overexpressed, from IL-33-treated cells (UniProt Q9Y616 1-596, phosphoserine at 110 (LC-MS/MS of the GST-Pin1-bound protein)).
T4 construct: also called WT IRAKM
T4 sequence (looked up): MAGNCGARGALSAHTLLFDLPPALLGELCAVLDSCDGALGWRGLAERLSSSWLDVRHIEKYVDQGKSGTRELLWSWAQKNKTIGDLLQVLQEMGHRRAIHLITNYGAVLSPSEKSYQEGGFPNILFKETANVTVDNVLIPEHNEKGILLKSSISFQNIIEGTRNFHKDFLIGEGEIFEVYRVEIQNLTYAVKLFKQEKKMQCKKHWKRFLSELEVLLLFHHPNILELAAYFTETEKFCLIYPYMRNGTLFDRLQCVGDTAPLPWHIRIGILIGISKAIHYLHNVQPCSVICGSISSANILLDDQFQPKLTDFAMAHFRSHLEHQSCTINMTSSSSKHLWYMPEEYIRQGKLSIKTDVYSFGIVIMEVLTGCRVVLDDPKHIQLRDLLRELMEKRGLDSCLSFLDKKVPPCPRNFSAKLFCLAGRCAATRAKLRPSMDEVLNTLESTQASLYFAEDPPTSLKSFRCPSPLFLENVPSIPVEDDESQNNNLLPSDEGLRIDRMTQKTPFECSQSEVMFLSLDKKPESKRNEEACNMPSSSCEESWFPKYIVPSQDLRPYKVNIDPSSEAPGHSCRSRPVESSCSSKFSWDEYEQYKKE
The experiment is described as follows: co-IP with anti-GFP antibody from IL-33-treated HEK293 cells co-expressing IRAKM, western blot for IRAKM.

The next experiment concerns the target T5, IRAKM P111A (UniProt Q9Y616 1-596).
T5 construct: also called P111A mutant; P111 mutation
T5 sequence (looked up): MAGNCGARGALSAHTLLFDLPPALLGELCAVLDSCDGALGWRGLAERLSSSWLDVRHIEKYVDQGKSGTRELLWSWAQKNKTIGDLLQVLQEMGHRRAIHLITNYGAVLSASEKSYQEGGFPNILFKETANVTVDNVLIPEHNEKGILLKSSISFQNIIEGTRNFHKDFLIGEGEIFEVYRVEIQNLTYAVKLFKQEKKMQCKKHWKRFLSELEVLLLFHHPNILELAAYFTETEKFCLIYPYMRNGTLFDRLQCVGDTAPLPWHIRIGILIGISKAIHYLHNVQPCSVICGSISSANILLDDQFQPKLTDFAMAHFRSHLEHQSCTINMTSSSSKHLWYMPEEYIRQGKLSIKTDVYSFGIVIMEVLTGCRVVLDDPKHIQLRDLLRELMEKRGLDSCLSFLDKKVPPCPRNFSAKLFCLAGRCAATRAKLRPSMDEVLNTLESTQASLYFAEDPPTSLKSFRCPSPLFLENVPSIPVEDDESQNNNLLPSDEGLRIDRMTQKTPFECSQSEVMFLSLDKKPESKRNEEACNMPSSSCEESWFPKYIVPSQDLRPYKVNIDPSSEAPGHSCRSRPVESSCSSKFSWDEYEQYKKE
Nature of the experiment: co-IP with anti-IRAKM antibody from DC2.4 cells stably expressing P111A, western blot for Pin1.

Experiment [5] deals with T1, Erk2. The experiment is described as follows: Flag co-IP from HEK293 cells transfected with Flag-Rab2A with or without AcMEK1, western blot.
Experiment [6] deals with T6, p-Erk2 (phosphorylated Erk2) (human, UniProt P28482 2-360, phosphorylated (p-Erk1/2, induced by constitutively active MEK1); sites not given).
T6 construct: also called p-Erk1/2 (member Erk2)
The experiment is described as above.

In experiment [7] the target is B3. The description is as above.
The target in experiment [8] is T7, p-Erk1 (phosphorylated Erk1) (human, UniProt P27361 2-379, phosphorylated (p-Erk1/2, induced by constitutively active MEK1); sites not given).
T7 construct: also called p-Erk1/2 (member Erk1)
Described as above.

Experiment [9] addresses T1, Erk2. Nature of the experiment: GST pull-down of endogenous Erk1/2 from cell lysate, western blot.
Experiment [10] concerns the target B3. The description is as above.

T1 sequence (P28482 whole entry): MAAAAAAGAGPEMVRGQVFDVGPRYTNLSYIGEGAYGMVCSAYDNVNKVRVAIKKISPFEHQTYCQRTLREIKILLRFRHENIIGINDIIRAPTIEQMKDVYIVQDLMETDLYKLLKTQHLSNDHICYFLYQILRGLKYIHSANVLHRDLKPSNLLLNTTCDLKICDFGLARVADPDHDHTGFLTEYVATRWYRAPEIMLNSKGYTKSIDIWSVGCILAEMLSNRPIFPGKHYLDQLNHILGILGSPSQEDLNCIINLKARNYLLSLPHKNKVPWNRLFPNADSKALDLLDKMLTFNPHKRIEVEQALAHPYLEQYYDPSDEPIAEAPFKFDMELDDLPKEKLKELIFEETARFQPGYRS
T6 sequence (P28482 2-360 limits assumed): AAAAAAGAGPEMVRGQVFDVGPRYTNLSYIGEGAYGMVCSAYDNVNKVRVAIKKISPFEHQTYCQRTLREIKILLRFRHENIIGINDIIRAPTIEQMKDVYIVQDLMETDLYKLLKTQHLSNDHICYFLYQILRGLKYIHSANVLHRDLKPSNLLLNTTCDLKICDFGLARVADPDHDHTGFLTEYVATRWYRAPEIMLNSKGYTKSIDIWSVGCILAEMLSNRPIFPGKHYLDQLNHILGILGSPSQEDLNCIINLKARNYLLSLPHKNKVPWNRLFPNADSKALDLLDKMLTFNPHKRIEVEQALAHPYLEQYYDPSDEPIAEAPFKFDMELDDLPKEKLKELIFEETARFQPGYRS

B1: endogenous Rab2A (HMLE cells) (enzyme, human, UniProt P61019 2-212, looked up)
chain: AYAYLFKYIIIGDTGVGKSCLLLQFTDKRFQPVHDLTIGVEFGARMITIDGKQIKLQIWDTAGQESFRSITRSYYRGAAGALLVYDITRRDTFNHLTTWLEDARQHSNSNMVIMLIGNKSDLESRREVKKEEGEAFAREHGLIFMETSAKTASNVEEAFINTAKEIYEKIQEGVFDINNEANGIKIGPQHAATNATHAGNQGGQQAGGGCC
With B1, the binding result with Erk2 [1] and with Erk1 [2] was “binds” each time.

B2: 15N-labeled Pin1 WW domain (Pin1 residues 1-50) (other, UniProt Q13526 1-50, looked up)
chain: MADEEKLPPGWEKRMSRSSGRVYYFNHITNASQWERPSGNSSSGGKNGQG
modifications: uniformly 15N-labeled
notes: range 1-50; also called 15N-Pin1-WW; 15N-Pin1 WW
B2: the Kd in experiment [3] stood at 1510 µM.
B3: in the experiment with myc-MKP3, the binding result is reported as “binds”.

B4: GFP-PPlase (other)
chain: GKNGQGEPARVRCSHLLVKHSQSRRPSSWRQEKITRTKEEALELINGYIQKIKSGEEDFESLASQFSDCSSAKARGDLGAFSRGQMQKPFEDASFALRTGEMSGPVFTDSGIHIILRTE
notes: also called GFP fused the Pin1 peptidyl-prolyl cis-trans isomerase (PPlase) domain; GFP-PPlase domain; not shown: GFP
On to B4, for which, in experiment [4], the binding result is reported as “no binding”.

B5: Pin1, endogenous in DC2.4 cells (enzyme, mouse, UniProt Q9QUR7 1-165, looked up)
chain: MADEEKLPPGWEKRMSRSSGRVYYFNHITNASQWERPSGGSTVGGSSKNGQGEPAKVRCSHLLVKHSQSRRPSSWRQEKITRSKEEALELINGYIQKIKSGEEDFESLASQFSDCSSAKARGDLGPFSRGQMQKPFEDASFALRTGEMSGPVFTDSGIHIILRTE
As for B5, the binding result with IRAKM P111A is “no binding”.

B6: Flag-Rab2A (enzyme, UniProt P61019 1-212, looked up)
chain: MAYAYLFKYIIIGDTGVGKSCLLLQFTDKRFQPVHDLTIGVEFGARMITIDGKQIKLQIWDTAGQESFRSITRSYYRGAAGALLVYDITRRDTFNHLTTWLEDARQHSNSNMVIMLIGNKSDLESRREVKKEEGEAFAREHGLIFMETSAKTASNVEEAFINTAKEIYEKIQEGVFDINNEANGIKIGPQHAATNATHAGNQGGQQAGGGCC
notes: Expressed in HEK293/293T or HMLE cells; also called Flag-tagged wild-type Rab2A; not shown: Flag tag
Consider B6, for which the binding result (with Erk2 [5]; in experiment [6]; in the experiment with Erk1 [7]; in [8]) was “binds” throughout.

B7: GST-Rab2A (wild type) (enzyme, UniProt P61019 1-212, looked up)
chain: MAYAYLFKYIIIGDTGVGKSCLLLQFTDKRFQPVHDLTIGVEFGARMITIDGKQIKLQIWDTAGQESFRSITRSYYRGAAGALLVYDITRRDTFNHLTTWLEDARQHSNSNMVIMLIGNKSDLESRREVKKEEGEAFAREHGLIFMETSAKTASNVEEAFINTAKEIYEKIQEGVFDINNEANGIKIGPQHAATNATHAGNQGGQQAGGGCC
notes: also called wild-type GST-Rab2A fusion protein; not shown: GST tag
As to B7, the binding result with Erk2 [9] and in the experiment with Erk1 [10] was “binds” each time.

B8: GST-Rab2A mut1/2 (enzyme, UniProt P61019 1-212, looked up)
chain: MAYAYLFKYIIIGDTGVGKSCLLLQFTDAAFQPVHDATAGVEFGARMITIDGKQIKLQIWDTAGQESFRSITRSYYRGAAGALLVYDITRRDTFNHLTTWLEDARQHSNSNMVIMLIGNKSDLESRREVKKEEGEAFAREHGLIFMETSAKTASNVEEAFINTAKEIYEKIQEGVFDINNEANGIKIGPQHAATNATHAGNQGGQQAGGGCC
notes: not shown: GST tag
Take B8: the binding result with Erk2 [9] and with Erk1 [10] was “no binding” each time.
